According to PMC7064404:

Legend:
[1] = target: GFP-tagged full length Shank3 S685A (rat) (rat); assay: co-IP
[2] = target: GFP-tagged full length Shank3 S685D (rat) (rat); assay: co-IP
[3] = target: GST-Shank3 (572-691) wild type, pre-phosphorylated by CaMKIIα at Ser685 (rat); assay: pull-down
Sequence of GST-Shank3 (572-691) wild type, pre-phosphorylated by CaMKIIα at Ser685 (rat) (Q9JLU4 572-691): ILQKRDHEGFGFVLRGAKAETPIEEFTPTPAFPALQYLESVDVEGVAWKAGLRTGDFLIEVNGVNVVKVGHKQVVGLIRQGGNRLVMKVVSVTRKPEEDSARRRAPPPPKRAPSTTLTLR

N-terminal HA-tagged ABI1 (Abelson interactor 1), full length (from UniProt Q8IZP0 1-508) (natural protein)
percent reduction of co-immunoprecipitated HA-ABI1 (HA/GFP) compared to WT [1]: 37% | percent reduction of co-immunoprecipitated HA-ABI1 (HA/GFP) compared to WT [2]: 32% | HA-ABI1 binding (HA/GST) relative to no CaMKII condition [3]: 148%
